Assay results taken from US20210101982A1.

Target: PD-L1 on cells (cancer cell lines expressing PD-L1; PD-L1+ aAPC/CHO-K1 cells) (human) (UniProt Q9NZQ7)
Assay: cell-based or functional assay

Sequence of PD-L1 on cells (cancer cell lines expressing PD-L1; PD-L1+ aAPC/CHO-K1 cells) (human) (Q9NZQ7 19-290): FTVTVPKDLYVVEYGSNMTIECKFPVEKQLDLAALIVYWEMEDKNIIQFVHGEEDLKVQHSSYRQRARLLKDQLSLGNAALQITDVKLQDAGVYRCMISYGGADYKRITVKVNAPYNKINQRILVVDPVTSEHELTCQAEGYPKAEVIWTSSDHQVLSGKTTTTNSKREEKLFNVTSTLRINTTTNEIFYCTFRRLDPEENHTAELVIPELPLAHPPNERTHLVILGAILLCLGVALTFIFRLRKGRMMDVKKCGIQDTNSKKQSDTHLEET

Atezolizumab - vc-MMAE (antibody)
> 3000 ng/mL: x50 (50% reduction in viability, CellTiter-Glo, 96 h) on 786-O cells | x50 (50% reduction in viability, CellTiter-Glo, 96 h) on BXPC3 cells | x50 (50% reduction in viability, CellTiter-Glo, 96 h) on KARPAS 299 cells | x50 (50% reduction in viability, CellTiter-Glo, 96 h) on L540CY cells | x50 (50% reduction in viability, CellTiter-Glo, 96 h) on MDA-MB-231 cells

Atezolizumab - MP-PEG8-VKG-Camptothecin (antibody)
> 3000 ng/mL: x50 (50% reduction in viability, CellTiter-Glo, 96 h) on 786-O cells | x50 (50% reduction in viability, CellTiter-Glo, 96 h) on BXPC3 cells | x50 (50% reduction in viability, CellTiter-Glo, 96 h) on KARPAS 299 cells | x50 (50% reduction in viability, CellTiter-Glo, 96 h) on L540CY cells | x50 (50% reduction in viability, CellTiter-Glo, 96 h) on MDA-MB-231 cells
